Like-named read-outs stand apart in the source and are kept apart here.
B1: U2AF2 (protein, UniProt P26368 2-475, looked up)
Splicing factor U2AF 65 kDa …: SDFDEFERQLNENKQERDKENRHRKRSHSRSRSRDRKRRSRSRDRRNRDQRSASRDRRRRSKPLTRGAKEEHGGLIRSPRHEKKKKVRKYWDVPPPGFEHITPMQYKAMQAAGQIPATALLPTMTPDGLAVTPTPVPVVGSQMTRQARRLYVGNIPFGITEEAMMDFFNAQMRLGGLTQAPGNPVLAVQINQDKNFAFLEFRSVDETTQAMAFDGIIFQGQSLKIRRPHDYQPLPGMSENPSVYVPGVVSTVVPDSAHKLFIGGLPNYLNDDQVKELLTSFGPLKAFNLVKDSATGLSKGYAFCEYVDINVTDQAIAGLNGMQLGDKKLLVQRASVGAKNATLVSPPSTINQTPVTLQVPGLMSSQVQMGGHPTEVLCLMNMVLPEELLDDEEYEEIVEDVRDECSKYGLVKSIEIPRPVDGVEVPGCGKIFVEFTSVFDCQKAMQGLTGRKFANRVVVTKYCDPDSYHRRDFW
B2: THRAP3: host protein, UniProt Q9Y2W1 (protein, UniProt Q9Y2W1 2-955, looked up)
Thyroid hormone …: SKTNKSKSGSRSSRSRSASRSRSRSFSKSRSRSRSLSRSRKRRLSSRSRSRSYSPAHNRERNHPRVYQNRDFRGHNRGYRRPYYFRGRNRGFYPWGQYNRGGYGNYRSNWQNYRQAYSPRRGRSRSRSPKRRSPSPRSRSHSRNSDKSSSDRSRRSSSSRSSSNHSRVESSKRKSAKEKKSSSKDSRPSQAAGDNQGDEAKEQTFSGGTSQDTKASESSKPWPDATYGTGSASRASAVSELSPRERSPALKSPLQSVVVRRRSPRPSPVPKPSPPLSSTSQMGSTLPSGAGYQSGTHQGQFDHGSGSLSPSKKSPVGKSPPSTGSTYGSSQKEESAASGGAAYTKRYLEEQKTENGKDKEQKQTNTDKEKIKEKGSFSDTGLGDGKMKSDSFAPKTDSEKPFRGSQSPKRYKLRDDFEKKMADFHKEEMDDQDKDKAKGRKESEFDDEPKFMSKVIGANKNQEEEKSGKWEGLVYAPPGKEKQRKTEELEEESFPERSKKEDRGKRSEGGHRGFVPEKNFRVTAYKAVQEKSSSPPPRKTSESRDKLGAKGDFPTGKSSFSITREAQVNVRMDSFDEDLARPSGLLAQERKLCRDLVHSNKKEQEFRSIFQHIQSAQSQRSPSELFAQHIVTIVHHVKEHHFGSSGMTLHERFTKYLKRGTEQEAAKNKKSPEIHRRIDISPSTFRKHGLAHDEMKSPREPGYKAEGKYKDDPVDLRLDIERRKKHKERDLKRGKSRESVDSRDSSHSRERSAEKTEKTHKGSKKQKKHRRARDRSRSSSSSSQSSHSYKAEEYTEETEEREESTTGFDKSRLGTKDFVGPSERGGGRARGTFQFRARGRGWGRGNYSGNNNNNSNNDFQKRNREEEWDPEYTPKSKKYYLHDDREGEGSDKWVSRGRGRGAFPRGRGRFMFRKSSTSPKWAHDKFSGEEGEIEDDESGTENREEKDNIQPTTE
B3: HNRNPUL2: host protein, UniProt Q1KMD3 (protein, UniProt Q1KMD3 1-747, looked up)
Heterogeneous nuclear …: MEVKRLKVTELRSELQRRGLDSRGLKVDLAQRLQEALDAEMLEDEAGGGGAGPGGACKAEPRPVAASGGGPGGDEEEDEEEEEEDEEALLEDEDEEPPPAQALGQAAQPPPEPPEAAAMEAAAEPDASEKPAEATAGSGGVNGGEEQGLGKREEDEPEERSGDETPGSEVPGDKAAEEQGDDQDSEKSKPAGSDGERRGVKRQRDEKDEHGRAYYEFREEAYHSRSKSPLPPEEEAKDEEEDQTLVNLDTYTSDLHFQVSKDRYGGQPLFSEKFPTLWSGARSTYGVTKGKVCFEAKVTQNLPMKEGCTEVSLLRVGWSVDFSRPQLGEDEFSYGFDGRGLKAENGQFEEFGQTFGENDVIGCFANFETEEVELSFSKNGEDLGVAFWISKDSLADRALLPHVLCKNCVVELNFGQKEEPFFPPPEEFVFIHAVPVEERVRTAVPPKTIEECEVILMVGLPGSGKTQWALKYAKENPEKRYNVLGAETVLNQMRMKGLEEPEMDPKSRDLLVQQASQCLSKLVQIASRTKRNFILDQCNVYNSGQRRKLLLFKTFSRKVVVVVPNEEDWKKRLELRKEVEGDDVPESIMLEMKANFSLPEKCDYMDEVTYGELEKEEAQPIVTKYKEEARKLLPPSEKRTNRRNNRNKRNRQNRSRGQGYVGGQRRGYDNRAYGQQYWGQPGNRGGYRNFYDRYRGDYDRFYGRDYEYNRYRDYYRQYNRDWQSYYYHHPQDRDRYYRNYYGYQGYR
B4: RTCB (protein, UniProt Q9Y3I0 1-505, looked up)
RNA-splicing ligase RtcB …: MSRSYNDELQFLEKINKNCWRIKKGFVPNMQVEGVFYVNDALEKLMFEELRNACRGGGVGGFLPAMKQIGNVAALPGIVHRSIGLPDVHSGYGFAIGNMAAFDMNDPEAVVSPGGVGFDINCGVRLLRTNLDESDVQPVKEQLAQAMFDHIPVGVGSKGVIPMNAKDLEEALEMGVDWSLREGYAWAEDKEHCEEYGRMLQADPNKVSARAKKRGLPQLGTLGAGNHYAEIQVVDEIFNEYAAKKMGIDHKGQVCVMIHSGSRGLGHQVATDALVAMEKAMKRDKIIVNDRQLACARIASPEGQDYLKGMAAAGNYAWVNRSSMTFLTRQAFAKVFNTTPDDLDLHVIYDVSHNIAKVEQHVVDGKERTLLVHRKGSTRAFPPHHPLIAVDYQLTGQPVLIGGTMGTCSYVLTGTEQGMTETFGTTCHGAGRALSRAKSRRNLDFQDVLDKLADMGIAIRVASPKLVMEEAPESYKNVTDVVNTCHDAGISKKAIKLRPIAVIKG
B5: PUM1: host protein, UniProt Q14671 (protein, UniProt Q14671 2-1186, looked up)
Pumilio homolog 1: SVACVLKRKAVLWQDSFSPHLKHHPQEPANPNMPVVLTSGTGSQAQPQPAANQALAAGTHSSPVPGSIGVAGRSQDDAMVDYFFQRQHGEQLGGGGSGGGGYNNSKHRWPTGDNIHAEHQVRSMDELNHDFQALALEGRAMGEQLLPGKKFWETDESSKDGPKGIFLGDQWRDSAWGTSDHSVSQPIMVQRRPGQSFHVNSEVNSVLSPRSESGGLGVSMVEYVLSSSPGDSCLRKGGFGPRDADSDENDKGEKKNKGTFDGDKLGDLKEEGDVMDKTNGLPVQNGIDADVKDFSRTPGNCQNSANEVDLLGPNQNGSEGLAQLTSTNGAKPVEDFSNMESQSVPLDPMEHVGMEPLQFDYSGTQVPVDSAAATVGLFDYNSQQQLFQRPNALAVQQLTAAQQQQYALAAAHQPHIGLAPAAFVPNPYIISAAPPGTDPYTAGLAAAATLGPAVVPHQYYGVTPWGVYPASLFQQQAAAAAAATNSANQQTTPQAQQGQQQVLRGGASQRPLTPNQNQQGQQTDPLVAAAAVNSALAFGQGLAAGMPGYPVLAPAAYYDQTGALVVNAGARNGLGAPVRLVAPAPVIISSSAAQAAVAAAAASANGAAGGLAGTTNGPFRPLGTQQPQPQPQQQPNNNLASSSFYGNNSLNSNSQSSSLFSQGSAQPANTSLGFGSSSSLGATLGSALGGFGTAVANSNTGSGSRRDSLTGSSDLYKRTSSSLTPIGHSFYNGLSFSSSPGPVGMPLPSQGPGHSQTPPPSLSSHGSSSSLNLGGLTNGSGRYISAAPGAEAKYRSASSASSLFSPSSTLFSSSRLRYGMSDVMPSGRSRLLEDFRNNRYPNLQLREIAGHIMEFSQDQHGSRFIQLKLERATPAERQLVFNEILQAAYQLMVDVFGNYVIQKFFEFGSLEQKLALAERIRGHVLSLALQMYGCRVIQKALEFIPSDQQNEMVRELDGHVLKCVKDQNGNHVVQKCIECVQPQSLQFIIDAFKGQVFALSTHPYGCRVIQRILEHCLPDQTLPILEELHQHTEQLVQDQYGNYVIQHVLEHGRPEDKSKIVAEIRGNVLVLSQHKFASNVVEKCVTHASRTERAVLIDEVCTMNDGPHSALYTMMKDQYANYVVQKMIDVAEPGQRKIVMHKIRPHIATLRKYTYGKHILAKLEKYYMKNGVDLGPICGPPNGII

How the values were obtained:
Assay type in all cases: binding
gRNA of HCoV-OC43 = settings: for target (spectral count, OC43 Probe I RNP capture) / background (spectral count, no-probe control): type n_48_v: 48 hours post-infection; for target (spectral count, OC43 Probe I RNP capture): infected cells, unweighted spectral count; for background (spectral count, no-probe control): no-probe control on infected cells; for target (spectral count) / background (spectral count): type g_36_m, 36 hpi, Probe I; for target (spectral count): HCoV-OC43-infected HCT-8 cells; for background (spectral count): uninfected-probe control
SARS-CoV-2 gRNA = settings: […]; LC-MS/MS; Probe I sample (first 199 lines of Table 2)
[1] = tested on: SARS-CoV-2 gRNA and sgRNAs; settings: for target (unweighted spectral count of the protein in the RNP capture experiment): LC-MS/MS label-free quantification, probe pool not given; for back-ground (unweighted spectral count of the protein in the control experiment): protein background of the control (e.g. no-probe) experiment; for target (unweighted spectral count in RNP capture): Probe II capture, LC-MS/MS LFQ; for background (unweighted spectral count in control): no-probe control pull-down, used as background for Probe II
HCoV-OC43 gRNA and sgRNA = settings: for target (unweighted spectral count, OC43 Probe II capture) / target (unweighted spectral count): tested against no-probe control; for target (unweighted spectral count, OC43 Probe II capture): FDR<10%; for target (unweighted spectral count): OC43 Probe II, infected cells; for target (unweighted spectral count, OC43 Probe II) / background (unweighted spectral count, no-probe control): type n_48_v, 48 hpi; for target (unweighted spectral count, OC43 Probe II): OC43 Probe II capture on infected cells; for background (unweighted spectral count, no-probe control): no-probe control on infected cells

| Molecule | target (spectral count, OC43 Probe I RNP capture) (gRNA of HCoV-OC43) | background (spectral count, no-probe control) (gRNA of HCoV-OC43) | target (unweighted spectral count of the protein in the RNP capture) (SARS-CoV-2 gRNA) | target (unweighted spectral count of the protein in the RNP capture experiment) [1] | back-ground (unweighted spectral count of the protein in the control experiment) [1] | target (unweighted spectral count, OC43 Probe II capture) (HCoV-OC43 gRNA and sgRNA; 36 hpi, type n_36_v) | target (unweighted spectral count) (HCoV-OC43 gRNA and sgRNA; 12 hpi (type n_12_v)) | target (unweighted spectral count, OC43 Probe II) (HCoV-OC43 gRNA and sgRNA) | background (unweighted spectral count, no-probe control) (HCoV-OC43 gRNA and sgRNA) | target (spectral count) (gRNA of HCoV-OC43) | background (spectral count) (gRNA of HCoV-OC43) | target (unweighted spectral count) (HCoV-OC43 gRNA and sgRNA; 24 hpi (type n_24_v)) | target (spectral count) (HCoV-OC43 gRNA and sgRNA; type s_36_m, HCoV-OC43-infected HCT-8 cells, 36 hpi, Probe II) | background (spectral count) (HCoV-OC43 gRNA and sgRNA; type s_36_m, uninfected-probe control, 36 hpi, Probe II) | target (unweighted spectral count in RNP capture) [1] | background (unweighted spectral count in control) [1] | target (unweighted spectral count, OC43 Probe II capture) (HCoV-OC43 gRNA and sgRNA; 24 hpi, type n_24_v) |
| --- | --- | --- | --- | --- | --- | --- | --- | --- | --- | --- | --- | --- | --- | --- | --- | --- | --- |
| B1 | 8 | 1 | 7 | 6 | 1 | 6 | 5 | 12 | 1 |  |  |  |  |  |  |  |  |
| B2 | 10 | 2 | 7 | 6 | 1 | 12 |  | 13 | 2 | 8 | 1 |  |  |  |  |  |  |
| B3 | 33 | 2 | 6 | 5 | 1 | 14 | 6 | 25 | 2 | 24 | 3 | 11 | 14 | 1 |  |  |  |
| B4 | 7 | 1 | 6 |  |  | 6 |  | 7 | 1 |  |  |  |  |  | 14 | 1 | 4 |
| B5 | 6 | 1 | 6 |  |  | 6 |  | 6 | 1 | 11 | 1 |  |  |  | 20 | 1 |  |
